One substance from ChEMBL document CHEMBL1122571, “Design and synthesis of tetrahedral intermediate analogues as potential dihydroorotase inhibitors” (J Med Chem, 1984) can be followed below.

The subject of this data set is O=C1CC(C(=O)O)NC(=O)N1. As to the kind of experiment: Compound was evaluated for the inhibition of dihydroorotase enzyme from mouse Ehrlich ascites at the concentration of 10 uM and at pH 7.37.

Broadly, the Km is the substrate concentration at which the rate is half of its maximum.

On to “Multifunctional protein CAD (Mus musculus), B2RQC6”, for which the Km stood at 4 µM.
